Experimental data published in patent publication US20190345228A1 (DUKE UNIVERSITY, published 2019).

Target: TNF-related apoptosis-inducing ligand receptor 2 (TRAILR-2) (human, UniProt O14763 56-440)
Assay: cell-based or functional assay

Row | Binder | EC50, cell viability assay on Colo205 cells (concentration required to kill 50% of the cells) [nM]
1 | ELPa-(Tn3)4 (designed binder) VGVPGVGVPGVGVPGVGVPGVGVPGVGVPGVGVPGVGVPGVGVPGVGVPGVGVPGVGVPGVGVPGVGVPGVGVPGVGVPGVGVPGVGVPGVGVPGVGVPGVGVPGVGVPGVGVPGVGVPGVGVPGVGVPGVGVPGVGVPGVGVPGVGVPGVGVPGVGVPGVGVPGVGVPGVGVPGVGVPGVGVPGVGVPGVGVPGVGVPGVGVPGVGVPGVGVPGVGVPGVGVPGVGVPGVGVPGVGVPGVGVPGVGVPGVGVPGVGVPGVGVPGVGVPGVGVPGVGVPGVGVPGVGVPGVGVPGVGVPGVGVPGVGVPGVGVPGVGVPGVGVPGVGVPGVGVPGVGVPGVGVPGVGVPGVGVPGVGVPGVGVPGVGVPGVGVPGVGVPGVGVPGVGVPGVGVPGVGVPGVGVPGVGVPGVGVPGVGVPGVGVPGVGVPGVGVPGVGVPGVGVPGVGVPGVGVPGVGVPGVGVPGVGVPGVGVPGVGVPGVGVPGVGVPGVGVPGVGVPGVGVPGVGVPGVGVPGVGVPGVGVPGVGVPGVGVPGVGVPGVGVPGVGVPGVGVPGVGVPGVGVPGVGVPGVGVPGVGVPGVGVPGVGVPGVGVPGVGVPGGAIEVKDVTDTTALITWAKPWVDPPPLWGCELTYGIKDVPGDRTTIDLQQKHTAYSIGNLKPDTEYEVSLICFDPYGMRSKPAKETFTTGGGGSGGGGSGGGGSGAIEVKDVTDTTALITWAKPWVDPPPLWGCELTYGIKDVPGDRTTIDLQQKHTAYSIGNLKPDTEYEVSLICFDPYGMRSKPAKETFTTGGGGSGGGGSGGGGSGAIEVKDVTDTTALITWAKPWVDPPPLWGCELTYGIKDVPGDRTTIDLQQKHTAYSIGNLKPDTEYEVSLICFDPYGMRSKPAKETFTTGGGGSGGGGSGGGGSGAIEVKDVTDTTALITWAKPWVDPPPLWGCELTYGIKDVPGDRTTIDLQQKHTAYSIGNLKPDTEYEVSLICFDPYGMRSKPAKETFTTGGGGSGGGGSGGGGS | 0.08
2 | (Tn3)4 (designed binder) GAIEVKDVTDTTALITWAKPWVDPPPLWGCELTYGIKDVPGDRTTIDLQQKHTAYSIGNLKPDTEYEVSLICFDPYGMRSKPAKETFTTGGGGSGGGGSGGGGSGAIEVKDVTDTTALITWAKPWVDPPPLWGCELTYGIKDVPGDRTTIDLQQKHTAYSIGNLKPDTEYEVSLICFDPYGMRSKPAKETFTTGGGGSGGGGSGGGGSGAIEVKDVTDTTALITWAKPWVDPPPLWGCELTYGIKDVPGDRTTIDLQQKHTAYSIGNLKPDTEYEVSLICFDPYGMRSKPAKETFTTGGGGSGGGGSGGGGSGAIEVKDVTDTTALITWAKPWVDPPPLWGCELTYGIKDVPGDRTTIDLQQKHTAYSIGNLKPDTEYEVSLICFDPYGMRSKPAKETFTTGGGGSGGGGSGGGGS | 0.04
3 | ELPa-(Tn3)6 (designed binder) VGVPGVGVPGVGVPGVGVPGVGVPGVGVPGVGVPGVGVPGVGVPGVGVPGVGVPGVGVPGVGVPGVGVPGVGVPGVGVPGVGVPGVGVPGVGVPGVGVPGVGVPGVGVPGVGVPGVGVPGVGVPGVGVPGVGVPGVGVPGVGVPGVGVPGVGVPGVGVPGVGVPGVGVPGVGVPGVGVPGVGVPGVGVPGVGVPGVGVPGVGVPGVGVPGVGVPGVGVPGVGVPGVGVPGVGVPGVGVPGVGVPGVGVPGVGVPGVGVPGVGVPGVGVPGVGVPGVGVPGVGVPGVGVPGVGVPGVGVPGVGVPGVGVPGVGVPGVGVPGVGVPGVGVPGVGVPGVGVPGVGVPGVGVPGVGVPGVGVPGVGVPGVGVPGVGVPGVGVPGVGVPGVGVPGVGVPGVGVPGVGVPGVGVPGVGVPGVGVPGVGVPGVGVPGVGVPGVGVPGVGVPGVGVPGVGVPGVGVPGVGVPGVGVPGVGVPGVGVPGVGVPGVGVPGVGVPGVGVPGVGVPGVGVPGVGVPGVGVPGVGVPGVGVPGVGVPGVGVPGVGVPGVGVPGVGVPGVGVPGVGVPGVGVPGVGVPGVGVPGVGVPGVGVPGVGVPGVGVPGAIEVKDVTDTTALITWAKPWVDPPPLWGCELTYGIKDVPGDRTTIDLQQKHTAYSIGNLKPDTEYEVSLICFDPYGMRSKPAKETFTTGGGGSGGGGSGGGGSGAIEVKDVTDTTALITWAKPWVDPPPLWGCELTYGIKDVPGDRTTIDLQQKHTAYSIGNLKPDTEYEVSLICFDPYGMRSKPAKETFTTGGGGSGGGGSGGGGSGAIEVKDVTDTTALITWAKPWVDPPPLWGCELTYGIKDVPGDRTTIDLQQKHTAYSIGNLKPDTEYEVSLICFDPYGMRSKPAKETFTTGGGGSGGGGSGGGGSGAIEVKDVTDTTALITWAKPWVDPPPLWGCELTYGIKDVPGDRTTIDLQQKHTAYSIGNLKPDTEYEVSLICFDPYGMRSKPAKETFTTGGGGSGGGGSGGGGSGAIEVKDVTDTTALITWAKPWVDPPPLWGCELTYGIKDVPGDRTTIDLQQKHTAYSIGNLKPDTEYEVSLICFDPYGMRSKPAKETFTTGGGGSGGGGSGGGGSGAIEVKDVTDTTALITWAKPWVDPPPLWGCELTYGIKDVPGDRTTIDLQQKHTAYSIGNLKPDTEYEVSLICFDPYGMRSKPAKETFTTGGGGSGGGGSGGGGS | 0.00078
4 | (Tn3)6 (designed binder) GAIEVKDVTDTTALITWAKPWVDPPPLWGCELTYGIKDVPGDRTTIDLQQKHTAYSIGNLKPDTEYEVSLICFDPYGMRSKPAKETFTTGGGGSGGGGSGGGGSGAIEVKDVTDTTALITWAKPWVDPPPLWGCELTYGIKDVPGDRTTIDLQQKHTAYSIGNLKPDTEYEVSLICFDPYGMRSKPAKETFTTGGGGSGGGGSGGGGSGAIEVKDVTDTTALITWAKPWVDPPPLWGCELTYGIKDVPGDRTTIDLQQKHTAYSIGNLKPDTEYEVSLICFDPYGMRSKPAKETFTTGGGGSGGGGSGGGGSGAIEVKDVTDTTALITWAKPWVDPPPLWGCELTYGIKDVPGDRTTIDLQQKHTAYSIGNLKPDTEYEVSLICFDPYGMRSKPAKETFTTGGGGSGGGGSGGGGSGAIEVKDVTDTTALITWAKPWVDPPPLWGCELTYGIKDVPGDRTTIDLQQKHTAYSIGNLKPDTEYEVSLICFDPYGMRSKPAKETFTTGGGGSGGGGSGGGGSGAIEVKDVTDTTALITWAKPWVDPPPLWGCELTYGIKDVPGDRTTIDLQQKHTAYSIGNLKPDTEYEVSLICFDPYGMRSKPAKETFTTGGGGSGGGGSGGGGS | 0.0016
